Consider 1 substance from PMC6994669.

Broadly, the Kd is a measure of binding affinity in units of concentration. A high value points to weaker binding.

In this assay the target is PTPδ D2-His6 F1503A (mouse). Description: SPR; Biacore T200, 25 °C, 10 mM Hepes-NaOH pH 7.5, 150 mM NaCl, 0.005% Tween-20; wild-type or mutant PTPδ D2-His6 amine-coupled on a CM5 chip; wild-type or mutant Liprin-α3 tSAM injected, twofold dilutions from 40 µM to 39 nM; equilibrium KD. For orientation: In SPR one partner is held on a chip, and binding of the other changes the refractive index at the surface.

mouse Liprin-α3 tSAM (residues 808–1114), sequence (P60469 808-1114): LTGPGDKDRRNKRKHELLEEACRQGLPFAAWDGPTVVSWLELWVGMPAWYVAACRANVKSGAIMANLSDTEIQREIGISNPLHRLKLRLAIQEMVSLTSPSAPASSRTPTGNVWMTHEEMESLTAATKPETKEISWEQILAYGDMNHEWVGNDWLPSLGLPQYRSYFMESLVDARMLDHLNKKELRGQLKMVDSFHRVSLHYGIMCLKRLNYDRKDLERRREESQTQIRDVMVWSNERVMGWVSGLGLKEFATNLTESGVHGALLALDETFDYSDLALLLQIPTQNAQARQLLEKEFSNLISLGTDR

“mouse Liprin-α3 tSAM (residues 808–1114) (from UniProt P60469 808-1114) (domain or fragment)” yielded a dissociation constant (Kd) of 8.3 µM.
